Source: publication PMC4176340, “Structure and function of TatD exonuclease in DNA repair”

Molecular target: T1, TatD (Escherichia coli K12, UniProt P27859 1-260)
T1 sequence: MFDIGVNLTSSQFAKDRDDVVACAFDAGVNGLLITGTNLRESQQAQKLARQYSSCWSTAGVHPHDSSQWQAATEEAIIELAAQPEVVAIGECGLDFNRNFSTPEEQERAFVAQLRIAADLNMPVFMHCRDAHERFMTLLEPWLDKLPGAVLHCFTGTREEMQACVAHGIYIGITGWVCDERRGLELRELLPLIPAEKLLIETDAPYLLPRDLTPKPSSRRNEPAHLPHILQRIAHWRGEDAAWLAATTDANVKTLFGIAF
Assay: X-ray crystallography 2.9 A; no metal ion identified; only trinucleotide GCT seen, weak density, occupancy 0.7, inactive conformation, likely cleaved product; Co-crystals: TatD 7-8 mg/ml in 10 mM MOPS, 250 mM NaCl, DNA at 1:1.2 (TatD:DNA); reservoir 4% Tacsmate pH 4, 12% PEG 3350; temperature not stated. Nuclease assays (turnover only) not listed
Details: protein: recombinant; tags: C-terminal His-tag (pET22b); single strand; only 5'-GCT-3' modelled (digestion product or ordered 3' end)

GCTTAGCT (ssDNA) [8-nt ssDNA used for co-crystallization]
binding result: binds
